# From article PMC7588230, “Structural basis of αE-catenin–F-actin catch bond behavior” (eLife, 2020)
# Target: F-actin (rabbit skeletal muscle actin, ADP-actin filaments) (rabbit, UniProt P68135 1-377)
# Experiment: co-sedimentation; dilution series of ABD mixed with an equal volume of 4 μM F-actin, 30 min at room temperature, 20 mM HEPES pH 8.0, 150 mM NaCl, 1 mM DTT; pelleted at 140,717 x g for 20 min at 4°C; Coomassie bands quantified; fit with a Hill coefficient (W859A: one site-specific binding)
# Details: both partners purified
row,Binder,Kd [nM]
1,αE-catenin ABD 696–906 (domain or fragment) SKLDAEVSKWDDSGNDIIVLAKQMCMIMMEMTDFTRGKGPLKNTSDVISAAKKIAEAGSRMDKLGRTIADHCPDSACKQDLLAYLQRIALYCHQLNICSKVKAEVQNLGGELVVSGVDSAMSLIQAAKNLMNAVVQTVKASYVASTKYQKSQGMASLNLPAVSWKMKAPEKKPLVKREKQDETQTKIKRASQKKHVNPVQALSEFKAMDSI,400
2,αE-catenin ABD 699–868 (domain or fragment) DAEVSKWDDSGNDIIVLAKQMCMIMMEMTDFTRGKGPLKNTSDVISAAKKIAEAGSRMDKLGRTIADHCPDSACKQDLLAYLQRIALYCHQLNICSKVKAEVQNLGGELVVSGVDSAMSLIQAAKNLMNAVVQTVKASYVASTKYQKSQGMASLNLPAVSWKMKAPEKKP,2800
3,αE-catenin ABD 666–906 (full length) (domain or fragment) GQSARAIMAQLPQEQKAKIAEQVASFQEEKSKLDAEVSKWDDSGNDIIVLAKQMCMIMMEMTDFTRGKGPLKNTSDVISAAKKIAEAGSRMDKLGRTIADHCPDSACKQDLLAYLQRIALYCHQLNICSKVKAEVQNLGGELVVSGVDSAMSLIQAAKNLMNAVVQTVKASYVASTKYQKSQGMASLNLPAVSWKMKAPEKKPLVKREKQDETQTKIKRASQKKHVNPVQALSEFKAMDSI,8500
4,αE-catenin ABD 671–906 W859A (domain or fragment) AIMAQLPQEQKAKIAEQVASFQEEKSKLDAEVSKWDDSGNDIIVLAKQMCMIMMEMTDFTRGKGPLKNTSDVISAAKKIAEAGSRMDKLGRTIADHCPDSACKQDLLAYLQRIALYCHQLNICSKVKAEVQNLGGELVVSGVDSAMSLIQAAKNLMNAVVQTVKASYVASTKYQKSQGMASLNLPAVSAKMKAPEKKPLVKREKQDETQTKIKRASQKKHVNPVQALSEFKAMDSI,> 35000
5,αE-catenin ABD 671–872 (domain or fragment) AIMAQLPQEQKAKIAEQVASFQEEKSKLDAEVSKWDDSGNDIIVLAKQMCMIMMEMTDFTRGKGPLKNTSDVISAAKKIAEAGSRMDKLGRTIADHCPDSACKQDLLAYLQRIALYCHQLNICSKVKAEVQNLGGELVVSGVDSAMSLIQAAKNLMNAVVQTVKASYVASTKYQKSQGMASLNLPAVSWKMKAPEKKPLVKR,5000

# Further binders by falling Kd, results first:
row,Kd [nM],Binder
1,2000,αE-catenin ABD 671–906 (domain or fragment) AIMAQLPQEQKAKIAEQVASFQEEKSKLDAEVSKWDDSGNDIIVLAKQMCMIMMEMTDFTRGKGPLKNTSDVISAAKKIAEAGSRMDKLGRTIADHCPDSACKQDLLAYLQRIALYCHQLNICSKVKAEVQNLGGELVVSGVDSAMSLIQAAKNLMNAVVQTVKASYVASTKYQKSQGMASLNLPAVSWKMKAPEKKPLVKREKQDETQTKIKRASQKKHVNPVQALSEFKAMDSI
2,700,αE-catenin ABD 692–906 (domain or fragment) QEEKSKLDAEVSKWDDSGNDIIVLAKQMCMIMMEMTDFTRGKGPLKNTSDVISAAKKIAEAGSRMDKLGRTIADHCPDSACKQDLLAYLQRIALYCHQLNICSKVKAEVQNLGGELVVSGVDSAMSLIQAAKNLMNAVVQTVKASYVASTKYQKSQGMASLNLPAVSWKMKAPEKKPLVKREKQDETQTKIKRASQKKHVNPVQALSEFKAMDSI
3,500,αE-catenin ABD 699–906 (domain or fragment) DAEVSKWDDSGNDIIVLAKQMCMIMMEMTDFTRGKGPLKNTSDVISAAKKIAEAGSRMDKLGRTIADHCPDSACKQDLLAYLQRIALYCHQLNICSKVKAEVQNLGGELVVSGVDSAMSLIQAAKNLMNAVVQTVKASYVASTKYQKSQGMASLNLPAVSWKMKAPEKKPLVKREKQDETQTKIKRASQKKHVNPVQALSEFKAMDSI
